The text below walks through data of paper PMC6933502, “Structural and Functional Insights Into CmGH1, a Novel GH39 Family β-Glucosidase From Deep-Sea Bacterium” (Frontiers in Microbiology, 2019).

Residue numbers refer to the chain shown, from its start. Names may count otherwise. Some results are limits rather than exact numbers.

One data set has as its target T1, CmGH1 (Croceicoccus marinus, UniProt A0A1Z1FG87).
T1 construct: gene A9D14_15590; N-terminal His6-SUMO tag (pSMT3) cut with Ulp1; expressed in E. coli BL21 (DE3)
Kind of data set: residual p-NPG hydrolysis with added glucose. Type of data set: biochemical. The settings on record: p-NPG substrate; product inhibition.

Substrate in the data set “purified protein”: O=[N+]([O-])c1ccc(O[C@@H]2O[C@H](CO)[C@@H](O)[C@H](O)[C@H]2O)cc1
The experiment in a line: purified protein. As to conditions: conditions of the Km not stated, optimum pH 9.0, 55°C.

`OC[C@H]1OC(O)[C@H](O)[C@@H](O)[C@@H]1O` (some centres unmarked) [glucose]: the “% relative activity remaining at 200 mM” value on CmGH1 is given as greater than 30%.

B1: CmGH1 (Croceicoccus marinus) (protein)
chain: MTSDLIAKLSVNAGEPIGNMRQLHGTSGIPAPAPGTDSVPDILDVWRNAQVTLVRSYDWVSRLDTIDNPTSLFPDWSADPSDPASYNFAATDTWVGQTRSIGANILFTIASEIPANKQPARDLAKYEQVVENIVRHYVCGWGDGFENAVSHWEFGDQPDFGKLHFSGTPDQFYEMYAAAARAVKRVDPALKVGGPCVAFPLNEGPFREGFLDYVKQQSVPLDFLSWMWYGDNSRDPMDFRTIAAEVRAIVDKYGFTDTELLLSYWSMTGIPTAKFEDFDNAAFLAAAAIYMQDSEVDKAIFFRADTGADFHYNFTDPAGIFEDDGSQNARTGAFQLVGQTLATTERLAITGGDDNGFAALAGRTADGDTIRILISNYAIPDMYLTARDRDVFEFQVPIGDQKTDMSLNVPPRRVDARSTGYSGYTLEIGHLPWGDGPHRVVRYRADRDHKGEMLDSHEGRGSSVTVQNKLAVSGVELIEITRVSS
Regarding B1, in “purified protein”, the Km came to 332 ± 38 µM and the turnover number (kcat) was 0.0358 ± 0.00135 s⁻¹.

B2: CmGH1 (Croceicoccus marinus; Q157E) (protein)
chain: B1 chain with Q157E
B2: in “purified protein”, the Michaelis constant (Km) was 354.2 ± 42 µM and the turnover number (kcat) amounted to 0.488 ± 0.0147 s⁻¹.

By Km is commonly meant the substrate concentration at which the rate is half of its maximum. The term kcat denotes the number of substrate molecules converted per active site and unit of time at saturation.
